From patent US20240239885A1, “ANTIBODY CONJUGATE COMPRISING ANTI-P-CADHERIN ANTIBODY AND USES THEREOF” (WUXI BIOLOGICS IRELAND LIMITED, priority 2021, published 2024)
Starred links: 1 amine or outer side, 2 acyl side, 3 side chain; linkers in the order of their positions; H or OH if unused. Non-standard residues stand in square brackets, D forms with d. Residues, ends and D or L forms follow the SMILES beside them. *: point of attachment. Dolaproine = CO[C@@H]([C@@H]1CCCN1)[C@@H](C)C(=O)O; Hexanoyl(6-maleimido) = O=C1C=CC(=O)N1CCCCCC(=O)*; Dil = CC[C@H](C)[C@H](NC)[C@@H](CC(=O)O)OC; PABC = O=C(OCc1ccc(N[*:1])cc1)[*:2]; X1 = C[C@@H](N*)[C@@H](O)c1ccccc1; Cit = NC(=O)NCCC[C@H](N)C(=O)O; NMeV = CN[C@H](C(=O)O)C(C)C

B1: W3195-1.53.1-p1-uIgG1L-MMAE (antibody, V domains shown)
VH: QVQLQESGPGLVKPSETLSLTCTVSGGSVISDNYYWTWVRQPPGKGLEFIGYIYYRGSTNYNPSLKNRVIISIDTSRNQFSLDLNSVTAADTAVYYCARDRRTGNSLPFDNWGQGTLVTVSS
VL: SYELTQPPSVSVSPGQTAQITCSGDKLGDKFASWYQQKSGQSPVVVIYQDNKRPSGFPERFSGSNSGNTATLTISGTQAMDEADYYCQAWDSSIVVFGGGTKLTVLG
modifications: MC-vc-PAB-MMAE conjugated to cysteine thiols after TCEP reduction (positions not stated); HIC-DAR 3.86 per antibody
notes: also called W3195-p1-MMAE; WBP3195-p1-ADC

What was measured:
A549 cells = experiment: Cytotoxicity assay of ADC (Cell Titer Glo) on A549; format: cell-based, human; settings: for IC50: A549 (P-cadherin low expressing), 5 days, read-out: IC50 (nM), ADC toxicity; for Max Inh %: A549, 5 days
MDA-MB-453 cells = experiment: Cytotoxicity assay of ADC (Cell Titer Glo) on MDA-MB-453; format: cell-based, human; settings: for IC50: MDA-MB-453 (P-cadherin low expressing), 5 days, read-out: IC50 (nM), ADC toxicity; for Max Inh %: MDA-MB-453, 5 days
HT-29 cells = experiment: Cytotoxicity assay of ADC (Cell Titer Glo) on HT-29; settings: for Max Inh %: HT-29, 5 days; for IC50: read-out: IC50 (nM), ADC cytotoxicity, HT-29 (P-cadherin low expressing), 5 days
HCC-1954 cells = experiment: Cytotoxicity assay of ADC (Cell Titer Glo) on HCC-1954; settings: HCC-1954, 5 days; for IC50: read-out: IC50 (nM), ADC cytotoxicity
NCI-H1650 cells = experiment: Cytotoxicity assay of ADC (Cell Titer Glo) on NCI-H1650; format: cell-based, human; settings: NCI-H1650, 5 days
HCC-70 cells = experiment: Cytotoxicity assay of ADC (Cell Titer Glo) on HCC-70; settings: HCC-70, 5 days; for IC50: read-out: IC50 (nM), ADC cytotoxicity
[1] = molecular target: T1, P-Cadherin ECD domain 1 (aa 108-236) (human, UniProt P22223 108-236); experiment: direct ELISA, coated antigen
T1 construct: range 108-236; also called huCDH3 ECD Domain1
Protocol: (§1) The binding domains of the antibody drug conjugates to human P-Cadherin extra cellular domain (ECD) were determined by a direct protein binding ELISA. 96-well high protein binding ELISA plates (Nunc) were coated overnight at 4° ° C. with antigens in coating buffer. All wells were washed three time with PBS/0.5%. Tween-20 (v/v) and all the following wash steps in the assay were performed the same. The wells were then blocked for one hour with 2% BSA (Bovogen)/1×PBS (Ca+/Mg+) (Gibco) and washed three times. For the primary antibody binding, the testing antibodies including the BMKs and our antibodies serially diluted in 2% BSA/1×PBS (Ca+/Mg+) were added to the relevant wells and incubated at ambient temperature for two hours. Plates were washed three times prior to the addition of 100 μL of secondary antibody Goat anti-Human-IgG-F(ab′)2-HRP (Jackson) diluted in 2% BSA/1×PBS (Ca+/Mg+). Plates were incubated at room temperature for one hour, followed by six washes as describe above.
(§2) For the binding detection, 100 μL Tetramethylbenzidine (TMB) Substrate solution (Invitrogen) was added to all wells before stopping the reaction with 100 μL 2M HCl. The extent of the testing Abs binding to P-Cadherin ECD (i.e. huCDH3 ECD, Uniprot ID: P22223 aa108-654), P-Cadherin ECD domain 1 (aa 108-236), P-Cadherin ECD domain 1+2 (aa 108-348), P-Cadherin ECD domain 1+2+3 (aa 108-461), P-Cadherin ECD domain 1+2+3+4 (aa 108-550) proteins were determined by measuring the OD450-OD540 absorbance using the SpectraMax® M5e microplate reader. EC50 values were obtained by the four-parameter non-linear regression analysis using GraphPad Prism software.

[2] = molecular target: T2, P-Cadherin ECD domain 1+2 (aa 108-348) (human, UniProt P22223 108-348); experiment: direct ELISA, coated antigen
T2 construct: range 108-348; also called huCDH3 ECD Domain1 + 2
Protocol: as §1, §2

[3] = molecular target: T3, P-Cadherin ECD domain 1+2+3 (aa 108-461) (human, UniProt P22223 108-461); experiment: direct ELISA, coated antigen
T3 construct: range 108-461; also called huCDH3 ECD Domain1 + 2 + 3
Protocol: as §1, §2

[4] = molecular target: T4, human P-cadherin expressed on cells (human, UniProt P22223 108-829); experiment: FACS on HCT-116 cells
Protocol: Binding of the ADCs to P-cadherin expressed on HCT-116 cells was determined by flow cytometry analysis using the same procedure as described above. […] 1×10⁵ cells/well (100 μL) were added to each well of a 96-well U-plate (Corning, #3799) and centrifuged at 1500 rpm (Eppendorf, #5810R) for 5 minutes before removing the supernatant. Antibodies serially diluted in 1% BSA/1×PBS (Ca+/Mg+) were added at 100 μL/well to the pelleted cells and incubated at 4° C. for 1 hour. […] Cells were washed two times with 180 μL/well of 1% BSA/1×PBS (Ca+/Mg+) by centrifugation at 1500 rpm for 5 minutes at 4° C. Pelleted cells were resuspended in 100 μL/well Alexa647 conjugated Goat anti-human IgG Fc (Jackson, #109-605-098) 1:500 diluted in 1% BSA/1×PBS (Ca+/Mg+) for 30 minutes at 4° C. in the dark. Cells were then washed two times as described above. After the final wash, cells were resuspended in 100 μL 1% BSA/1×PBS (Ca+/Mg+) and fluorescence values were measured with a FACS Canto II cytometer (BD Biosciences). The amount of cell surface bound anti-P-Cadherin antibody was assessed by measuring the mean fluorescence (MFI).

[5] = molecular target: T4, human P-cadherin expressed on cells; experiment: FACS on NCI-H1650 cells
[6] = molecular target: T4, human P-cadherin expressed on cells; experiment: FACS on HCT-116 cells after 7 days in human serum at 37 C
Protocol: (§3) The antibody stability in human serum was tested by FACS. Briefly, human serum was freshly isolated by centrifuging the fresh blood twice at 4000 rpm for 10 minutes. […] As a control, antibodies serum mix was frozen immediately without 37° C. incubation. For the FACS analysis, the samples from different time points were free-thawed simultaneously at 4° C. […] The cells were washed twice with 1% BSA/1×PBS (Ca+/Mg+). Alexa647 conjugated Goat anti-human IgG Fc (Jackson, #109-605-098) 1:500 diluted in 1% BSA/1×PBS (Ca+/Mg+) were added to the cells and incubated at 4° C. for 30 minutes. Cells were washed twice in the same buffer and the mean fluorescence (MFI) of stained cells was measured using a FACS Canto II cytometer (BD Biosciences) and analyzed by FlowJo. Wells containing no antibody or secondary antibody only were used to establish background fluorescence. Four-parameter non-linear regression analysis was used to obtain EC50 values for cell binding using GraphPad Prism6 software.

[7] = molecular target: T4, human P-cadherin expressed on cells; experiment: cell-based or functional assay
[8] = molecular target: T4, human P-cadherin expressed on cells; experiment: FACS on HCT-116 cells after 4 days in human serum at 37 C
Protocol: as §3

[9] = molecular target: T4, human P-cadherin expressed on cells; experiment: cell-based or functional assay; remark: listed apart in the source
[10] = molecular target: T4, human P-cadherin expressed on cells; experiment: FACS on HCT-116 cells after 1 day in human serum at 37 C
Protocol: as §3

[11] = molecular target: T4, human P-cadherin expressed on cells; experiment: FACS on HCT-116 cells after 14 days in human serum at 37 C
Protocol: as §3

[12] = molecular target: T4, human P-cadherin expressed on cells; experiment: cell-based or functional assay; remark: listed apart in the source
[13] = molecular target: T1, P-Cadherin ECD domain 1 (aa 108-236); experiment: direct ELISA on coated huCDH3 ECD Domain1, goat anti-human IgG F(ab')2-HRP detection
Protocol: as §1, with “Plates were washed three times prior to the addition of 100 μL of secondary antibody Goat anti-Human-IgG-F(ab′)2-HRP (Jackson) diluted in 2% BSA/1×PBS (Ca+/Mg+). Plates were incubated at room temperature for one hour, followed by six washes as describe above.” left out
(§4) For the binding detection, 100 μL Tetramethylbenzidine (TMB) Substrate solution (Invitrogen) was added to all wells before stopping the reaction with 100 μL 2M HCl. The extent of the testing Abs binding to P-Cadherin ECD (i.e. huCDH3 ECD, Uniprot ID: P22223 aa108-654), P-Cadherin ECD domain 1 (aa 108-236), P-Cadherin ECD domain 1+2 (aa 108-348), P-Cadherin ECD domain 1+2+3 (aa 108-461), P-Cadherin ECD domain 1+2+3+4 (aa 108-550) proteins were determined by measuring the OD450-OD540 absorbance using the SpectraMax® M5e microplate reader. […]

[14] = molecular target: T5, P-Cadherin ECD domain 1+2+3+4 (aa 108-550) (human, UniProt P22223 108-550); experiment: direct ELISA, coated antigen
T5 construct: range 108-550; also called huCDH3 ECD Domain1 + 2 + 3 + 4
Protocol: as §1, §2

[15] = molecular target: T6, P-Cadherin ECD (huCDH3 ECD, Uniprot ID: P22223 aa108-654) (human, UniProt P22223 108-654); experiment: direct ELISA, coated antigen
T6 construct: range 108-654; also called extracellular domain of human P-cadherin
Protocol: as §1, §2

[16] = molecular target: T2, P-Cadherin ECD domain 1+2 (aa 108-348); experiment: direct ELISA on coated huCDH3 ECD Domain1+2, goat anti-human IgG F(ab')2-HRP detection
Protocol: as §1, with “Plates were washed three times prior to the addition of 100 μL of secondary antibody Goat anti-Human-IgG-F(ab′)2-HRP (Jackson) diluted in 2% BSA/1×PBS (Ca+/Mg+). Plates were incubated at room temperature for one hour, followed by six washes as describe above.” left out
as §4

[17] = molecular target: T4, human P-cadherin expressed on cells; experiment: FACS affinity test on NCI-H1650 cells, quantitative beads
[18] = molecular target: T4, human P-cadherin expressed on cells; experiment: cell-based or functional assay; remark: listed apart in the source
[19] = molecular target: T4, human P-cadherin expressed on cells; experiment: cell-based or functional assay; remark: listed apart in the source

T3 sequence (P22223 108-461 limits assumed): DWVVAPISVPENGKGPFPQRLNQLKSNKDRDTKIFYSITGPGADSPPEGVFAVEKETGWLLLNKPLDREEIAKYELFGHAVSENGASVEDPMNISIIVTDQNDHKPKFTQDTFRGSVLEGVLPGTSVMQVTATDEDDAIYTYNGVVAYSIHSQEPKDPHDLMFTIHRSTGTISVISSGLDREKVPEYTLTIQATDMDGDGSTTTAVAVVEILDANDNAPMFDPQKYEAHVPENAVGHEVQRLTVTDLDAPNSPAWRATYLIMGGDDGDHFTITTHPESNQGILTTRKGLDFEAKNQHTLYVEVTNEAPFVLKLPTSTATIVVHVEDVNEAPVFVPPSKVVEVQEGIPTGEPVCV
T4 sequence (P22223 108-829): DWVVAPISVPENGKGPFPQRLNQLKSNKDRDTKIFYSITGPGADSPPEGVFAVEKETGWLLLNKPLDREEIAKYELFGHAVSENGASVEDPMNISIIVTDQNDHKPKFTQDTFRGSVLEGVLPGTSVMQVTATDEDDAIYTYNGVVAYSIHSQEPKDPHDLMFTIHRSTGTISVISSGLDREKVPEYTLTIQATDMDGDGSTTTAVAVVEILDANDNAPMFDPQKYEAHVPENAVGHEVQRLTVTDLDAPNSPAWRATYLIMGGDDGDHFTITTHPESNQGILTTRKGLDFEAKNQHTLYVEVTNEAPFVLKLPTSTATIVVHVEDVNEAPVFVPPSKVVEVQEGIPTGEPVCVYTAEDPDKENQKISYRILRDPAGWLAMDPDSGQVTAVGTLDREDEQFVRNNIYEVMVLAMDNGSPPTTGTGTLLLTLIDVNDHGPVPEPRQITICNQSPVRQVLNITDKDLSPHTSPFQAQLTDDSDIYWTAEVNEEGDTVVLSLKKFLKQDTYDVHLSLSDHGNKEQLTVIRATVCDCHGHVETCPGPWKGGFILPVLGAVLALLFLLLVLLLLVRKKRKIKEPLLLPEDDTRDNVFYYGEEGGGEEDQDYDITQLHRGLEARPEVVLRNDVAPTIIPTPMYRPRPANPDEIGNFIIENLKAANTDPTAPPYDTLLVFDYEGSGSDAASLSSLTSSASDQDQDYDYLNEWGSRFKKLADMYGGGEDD
T1 sequence (P22223 108-236 limits assumed): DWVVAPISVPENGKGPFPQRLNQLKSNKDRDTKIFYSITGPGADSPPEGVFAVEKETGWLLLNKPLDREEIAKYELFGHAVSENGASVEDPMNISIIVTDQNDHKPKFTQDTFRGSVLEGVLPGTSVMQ
T2 sequence (P22223 108-348 limits assumed): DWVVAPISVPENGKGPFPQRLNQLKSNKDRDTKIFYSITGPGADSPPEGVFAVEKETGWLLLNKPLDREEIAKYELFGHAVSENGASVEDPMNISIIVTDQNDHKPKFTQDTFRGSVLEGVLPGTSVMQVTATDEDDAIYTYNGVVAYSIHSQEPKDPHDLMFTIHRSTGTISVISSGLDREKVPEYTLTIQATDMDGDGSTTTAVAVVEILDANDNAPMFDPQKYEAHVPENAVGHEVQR
T5 sequence (P22223 108-550 limits assumed): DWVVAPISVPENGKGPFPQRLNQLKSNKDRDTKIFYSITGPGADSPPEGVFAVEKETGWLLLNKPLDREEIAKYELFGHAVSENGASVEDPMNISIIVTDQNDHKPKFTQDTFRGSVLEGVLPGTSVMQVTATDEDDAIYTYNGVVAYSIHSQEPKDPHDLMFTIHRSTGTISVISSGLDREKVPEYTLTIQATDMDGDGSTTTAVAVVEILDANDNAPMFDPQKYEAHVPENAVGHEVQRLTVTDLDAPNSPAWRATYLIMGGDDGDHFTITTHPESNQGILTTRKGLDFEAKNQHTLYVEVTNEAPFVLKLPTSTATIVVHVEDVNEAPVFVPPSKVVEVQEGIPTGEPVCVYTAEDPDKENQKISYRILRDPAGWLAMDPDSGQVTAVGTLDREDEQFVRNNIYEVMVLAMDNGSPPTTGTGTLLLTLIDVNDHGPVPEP
T6 sequence (P22223 other isoform, or with tags, fused parts or gaps limits assumed): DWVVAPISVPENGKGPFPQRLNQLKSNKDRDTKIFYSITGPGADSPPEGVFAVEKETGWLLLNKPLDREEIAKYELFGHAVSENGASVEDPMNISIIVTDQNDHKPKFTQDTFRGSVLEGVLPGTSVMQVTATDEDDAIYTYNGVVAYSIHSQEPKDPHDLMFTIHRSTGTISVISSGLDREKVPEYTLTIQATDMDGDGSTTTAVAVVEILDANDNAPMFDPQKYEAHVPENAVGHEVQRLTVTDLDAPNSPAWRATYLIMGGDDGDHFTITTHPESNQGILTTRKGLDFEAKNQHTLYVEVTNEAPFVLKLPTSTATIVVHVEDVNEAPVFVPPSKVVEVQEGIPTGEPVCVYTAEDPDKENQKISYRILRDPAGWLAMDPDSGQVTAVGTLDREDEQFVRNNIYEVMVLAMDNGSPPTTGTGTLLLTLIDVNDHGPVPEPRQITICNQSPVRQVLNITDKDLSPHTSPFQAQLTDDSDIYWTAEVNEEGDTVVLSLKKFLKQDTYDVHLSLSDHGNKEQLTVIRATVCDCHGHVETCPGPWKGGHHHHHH

Molecule | IC50 (A549 cells) [nM] | Max Inh % (A549 cells) [%] | IC50 (MDA-MB-453 cells) [nM] | Max Inh % (MDA-MB-453 cells) [%] | Max Inh % (HT-29 cells) [%] | IC50 (HT-29 cells) [nM] | Max Inh % (HCC-1954 cells) [%] | IC50 (HCC-1954 cells) [nM] | Max Inh % (NCI-H1650 cells) [%] | Max Inh % (HCC-70 cells) [%] | IC50 (HCC-70 cells) [nM] | Max OD [1] [OD450-OD540] | Max OD [2] [OD450-OD540] | Max OD [3] [OD450-OD540] | also measured
CC[C@H](C)[C@@H]([C@@H](CC(=O)N1CCC[C@H]1[C@H](OC)[C@@H](C)C(=O)N[C@H](C)[C@@H](O)c1ccccc1)OC)N(C)C(=O)[C@@H](NC(=O)[C@H](C(C)C)N(C)C(=O)OCc1ccc(NC(=O)[C@H](CCCNC(N)=O)NC(=O)[C@@H](NC(=O)CCCCCN2C(=O)C=CC2=O)C(C)C)cc1)C(C)C [Free payload control (MC-VC-PAB-MMAE), MC-VC-PAB-MMAE] ({Hexanoyl(6-maleimido)}-V[Cit][PABC][NMeV]V[Dil][Dolaproine]-X1) | > 10 | −5.4 | > 10 | −0.6 | −0.1 | > 10 | 20.1 | > 10 | 1 | 1.3 | > 10 | – | – | – | IC50 (NCI-H1650 cells): > 10 nM
CC[C@H](C)[C@@H]([C@@H](CC(=O)N1CCC[C@H]1[C@H](OC)[C@@H](C)C(=O)N[C@H](C)[C@@H](O)c1ccccc1)OC)N(C)C(=O)[C@@H](NC(=O)[C@@H](NC)C(C)C)C(C)C [Free drug (MMAE), mono-methyl auristatin E] (H-[NMeV]V[Dil][Dolaproine]-X1) | 1.37 | 89.2 | 1.28 | 96.7 | 95.5 | 0.52 | 97.7 | 0.05 | 81 | 87.2 | 0.23 | – | – | – | –
Isotype control (non-related hIgG1 antibody) | – | – | – | – | – | – | – | – | – | – | – | 0.014 | 0.014 | 0.015 | Max MFI [4]: 402 MFI; Max MFI [5]: 331 MFI
B1 | – | – | – | – | – | – | – | – | – | – | – | 0.19 | 0.16 | 0.95 | EC50 [6]: 0.17 nM; ADC Cytotoxicity on HCC-70, IC50 [7]: 0.065 nM; EC50 [8]: 0.18 nM; Internalization of NCI-H1650 cells in HCS assay, EC50 [9]: 0.22 nM; EC50 [10]: 0.15 nM; EC50 [11]: 0.18 nM; ADC Cytotoxicity on HCC-1954, IC50 [12]: 0.011 nM; binding result [13]: no binding (tested: about 20 nM); EC50 [14]: 0.17 nM; Max OD [14]: 0.75 OD450-OD540; EC50 [3]: 0.2 nM; EC50 [15]: 0.23 nM; Max OD [15]: 0.65 OD450-OD540; binding result [16]: no binding (tested: about 20 nM); EC50 [4]: 0.17 nM; Kd [17]: 0.168 nM; Internalization of HCC-1954 cells in HCS assay, EC50 [18]: 0.023 nM; EC50 [5]: 0.075 nM; ADC Cytotoxicity on NCI-H1650, IC50 [19]: 0.027 nM
